Assay results: the DeepSol protein solubility set

assay: soluble on expression in E. coli; label from the status in PepcDB or PDB records

| Sequence | soluble on expression in E. coli |
| --- | --- |
| MIDQTALATEIKRLIKAAGPMPVWRYMELCLGHPEHGYYVTRDPLGREGDFTTSPEISQMFGELLGLWSASVWKAADEPQTLRLIEIGPGRGTMMADALRALRVLPILYQSLSVHLVEINPVLRQKQQTLLAGIRNIHWHDSFEDVPEGPAVILANEYFDVLPIHQAIKRETGWHERVIEIGASGELVFGVAADPIPGFEALLPPLARLSPPGAVFEWRPDTEILKIASRVRDQGGAALIIDYGHLRSDVGDTFQAIASHSYADPLQHPGRADLTAHVDFDALGRAAESIGARAHGPVTQGAFLKRLGIETRALSLMAKATPQVSEDIAGALQRLTGEGRGAMGSMFKVIGVSDPKIETLVALSDDTDREAERRQGTHGLEHHHHHH | soluble |
| MAHHHHHHMIEHLNLWLPWKHRKPMWPYPQKNAMPSVFPLEFTTLGEGVVTFSCLCLAAVLAVQEVLTPSHGFPTVLVAFPHKRGGVSSALLYSKVVEAFIQSLRSESALVEAVTVRHMARAALQALNTIINACFSEQYPLYTMAQLLLSEGKAEAKDATHDGGMLGAVDLVLSIDPLSCGGDILHSETQLVMPTPFAIRSVGRCTPGAARQQTNVKLPSALEVTDAALLQMPGAGESSTGRRLSACILERSQVLLTLLK | not soluble |
| MGSDKIHHHHHHAISVGNLTFSLPAEADFASKRVVNNNKSARLYRIAVSAIDRPGGSEVRSRPVDGELLFAPRQLVLQAGESEYFKFYYHGPRDNRERYYRVSFREIPTRNLTRRSPTGGEVSMEPVVVMDTILVVRPREVQFKWSFDKVAGTVSNTGNTWFKLLIKPGCDSTEEEGDAWYLRPGDVVRQPALRQPGNHYLVYNDKFIKISDTCPLKPRPAE | not soluble |
| MGSDKIHHHHHHMRLDEYISRDIAWCPGCGNFGIRTALMKALEELNVDPRQVVIVSGIGQAAKMPQYVGVNMFNGLHGRALPVATAIKTTNPNLLVIAESGDGCMYGEGGNHFIHTIRRNPDIVNIVHDNQVYGLTKGQASPTSLKGFKTPVQVDGVILEPFNPLAVAIALDASFVARTFIGDIEFTKDILKEAMKHKGYALVDILQPCVTFNKLNTYEWYRENTYYLKDHDPTDRELAFKRAIETEKLPLGIFYVNKNKETFEELARKGDRTPLYEYEVNFEKLKELIESKKS | not soluble |
| MSLNILISGIHGFVGSNFIRALKDKHTLYGLDIVSPAKEGVVTTFSWQDFEPTSFPFQTLPQFDAIIHLAGKAHDTKKQSAAQSYFDINTGLTQKIFDFFLESSAKKFIFFSSVKAAADSVVGDVLTEDVIPTPVGPYGESKIKAEEYIKNHFMFPTSSISEDRSLRLEKEKGRIPKNKQVYILRPCMIHGPGNKGNLNLLYNVVKKGIPWPLGDFDNRRSFTSIDNLCYVIEGLLNQDVPTGIYHMGDDEALSTNELIGIMCEAMGKKPHIWKMNKRVMEGCAGLGTLMHLPLNTERLRKLTENYVVSNAKIKAALGIDKLPVTAKEGLMKTIRSFEETKEGHHHHHH | soluble |
| MSLQKNNLHIIIAEDDFDDADMICETFNQNPNFGKVSLVANGEELLNYLKNASNESPDVILTDINMPIVDGIEALQQILNNSDLKNIPCFVYSTSINPSYKEKCDDLGVKAYLIKPYSFEAFAEIPKTILSIIQAEGHHHHHH | soluble |
| MEGPLSKWTNMVHGWQYRWFKIENDTLLYYTSREKMLKGQQRGQIRLTGAVVGIDGENNSLFTITVEGKTFHMQGRDLRERNQWVRILENSIRASSGYAKNVSVGTTPSQHFKQRTEEANEFLKTLVEKVKALEQLKSGERAVDEKKTIDSLIAASNNLTNNVKHAIIYLQMAQARLDPNMKTEKLMFTHPDLNEKPSSRETPGTVSDSTQTSTDKPISGIQHLDHLKPQRAESYASSDEEEFYDADEELIDLDNFESEKSGQESGDSNRTSDAAIMSSDEDGYDFGDSNEDFDEIYNNAEEHDIGNVQQDHGSVLMHLLSQVSVGMDLTKVTLPTFILERRSLLEMYADFFAHPDLFIATNGNDSAEKRMIAVVRYYLNSFYAARKSGVAKKPYNAILGETFRCRYSVPNSSLSGKKTESGPWPGSDEKQLTFIAEQVSHHPPISAFYAEMPSEGISFNAHIYTKSSFLGLSIGVASIGEGILTLHNYGDEQYTITFPSGYGRSIMSTPWFEFGGKVKVECEKTGYRADIEFLTKPFFGGKPHRIQGSICRDGAKKPVLTLRGEWNGTMYAKTQNGEEYVFVDVKAKPEVKKECVPVMQQGKRESRRLWRHVTAALLRNRIQTATTSKRFIEQRQRKEAKERLESGEKWTPLLFDTTDKDGEWMYKQKFGVRKAV | not soluble |
| SLSEKVIDMYKSENCGCCSLWGKAMEKDGFEVRTHIMNDQALSALKEKHAIPAGLRSCHTAVAGNLIIEGHVPATTIHKAMQSGSGIYGLATPGMPAGSPGMEMGARKEAYDVIAFSPDGSKKVFQRIE | soluble |
| MGSDKIHHHHHHMKLETIDYRAQDSAQRFVESLRETGFGVLSNHPIDKALVDTIYEEWQAFFNSDEKHDYLFKPETHDGFFPADVSETAKGHTVKDIKEYYHVYPWGRIPDSLRENILRYYQEANALAEELLGWVEAHTPAEVAVNYSIALPKMIENSHKTLLRILHYPPMSGDEELGAIRAAAHEDINLLTVLPAANEPGLQVKAKSGEWLDVPSDFGNLIINIGDMLQEASGGYFPSTTHRVVNPEGADKTRSRISLPLFLHPKPEVVLSERYTADSYLMERLRELGVI | not soluble |
| MGSDKIHHHHHHEVDLYKGGSLREPAYLYPFDQENKNVTAEITIKTNSTINLELLDVYFAPLKYNKHLLIMLTQDDCKPSIYPRTWASINGKPLSGQYYYHYEQLKQDDLPPDIYYLGKTLGCTDGTGKEVRFSFTATLAADDNYMAEESIINLGYSKDNYRFYGRNGILWEDVIDIVNYGNSIAFHNVNTKEIHNIDSIQKHYLIGQDSIQKRLSGRKCKTLSEPDGNIDYTTAAINLDDIKTITAERGEKVYPFHNLTNLENHTLNRVFHDSPDDFKQVIEQERSIPTVDRCAINIGVHSTDAFWTDFLLWLNDTYGKDGEDCIWMPSQEEYYEYNYYRMHGKIEKSADGSTLKLIINLPSQEYFYYPSVTINLKGLKKEDIKSIESNSAVTGLSYGNYQDGVMLNIDCRRFLVEHATHFVEQYEKDKTNQSNKADALYFVNMLKESSKKAELLNRIK | not soluble |
| MLEAKNLTCIRDDRCLFQQLSFCIAPGEIVQIEGPNGAGKTSLLRILAGLAEADEGQVNWRDKNIRRDRAKYHQDLLFLGHQPGIKSVLTPFENLLFYQSVFQKVDSAAIWQALAQVGLVGYEDLPVSQLSAGQQRRVALARLWLSPAPLWILDEPLTAIDKQGVSTLLALFVQHAAKGGMVLLTTHQDLGAVSHNVRKICLANTQEKSCLSACCAVN | not soluble |
| MSLETTHSFGDRAVFAFGKHTGKIFKYAPRVLKDQDPEDLHQLRVGVRRLRTAVIGFMPAVQLPQGITERKIGKIGQQLGVQRDNDVLQEILLHKYLPHLPTSEQGCLEKVLKRLQKERKQAFKATYKLLTHDKFTQFKQSWEIWLEHPHFTSLGGLAIADVLPDLLLPQLSQFFLHPGWLVGTEIDPDTNSSNRQRRCIDLSPTAIETLLDGEESILHDLRKEAKRTRYQMELFSDYFGEEYQQLLAQVKMTQEILGNLQDSFVLRAMVEQYLDVDLKQLCPQWSAIFHGDRLGYWDQWQPLQSQFIDPVYRHHCRQLVQNPLVNSDQPTSSNLEGHHHHHH | soluble |
| MTTSAMTAPDTRRQLQHVETLRRFLRGDSCFVHDLRGMMDYHDGLSRRQQRAFCRASRVLTDPEPIQSEAEGENKQFTEHTHKVVSFFIKSVFVFPYLVLPNCCQVSVDRSRVPETGGRWLLEHHHHHH | not soluble |
| MSMSQSRAVQRSSSPNEDRGENQLVVYDLKGNDDTEEEVLPVQSQPLSSRTQCPSIGAFTVQCASCFKWRLMPSMQKYEEIREQLLENPFFCDTAREWKPDISCDVPADIYQDGTRLWAIDKPNISRPPAGWQRLLRIRGEGGTRFADVYYVAPSGKKLRSTVEVQKYLNDNSEYIGEGVKLSQFSFQIPKPLQDDYVRKRPARLLDSIDNTNTPVAKEANPLAWISPDDHISLQLGTPTESGLNNSHYQPSKKKKTSTLSIFGSNDELADR | soluble |
| MSFWRVFLFGLFLTPPAAACDLALALAVDVSGSVDEGEYRTQMDGLAHALRDPVVSEALVRAEAQLMLVQWTGSDRQRVTIPWTQASSFDALDRFADRVAADPRIWRNYSTAIGEALEVTMAAFAQVPDCARHLIDVSGDGPSNEGIEPLAVHRDLRALGITVNAIAIEQSEPDLTAYFYENVIVGEGAFVETANGFADYPARIRKKLLREVTQQTAALDLEHHHHHH | not soluble |
| MKSYIVIGAGILGASTAYHLAKEGASVMIIDRGDKGQATDAAAGIVCPWLSQRRNQKWYRLAKGGAKFYPSLIEELESYGETETGYARVGALWLHTDEQKLEQMEERALKRREDAPEMGEIVRLHPQEAKELFPPLVGEHHALYVSGAARVNGRAVRDALMNASQKRGAAYIRGNARLLFEGSRIIGVEADGTKYAAEAVIVTAGAWAGELLEPLGIKLLVTPQKGQLIHLEHPECDTSHWPVVMPPNNQYMLAFPGSRIVIGTTHEDEAGMDIRPTAGGMHELLDKALAVAPGLSTWTYIETRVGFRPRTPGFLPIFGPLPGFSGVYIANGLGSSGLTVGPYLGKELAKLVIGLPTELDPSDYDVASAVAPIVQ | not soluble |
| MPVNATGVSFSSFGISYHKDNSFRGTIRGKNDEVVKCSMGERSIRFNVNKFSGCILETVSRQSTKDIHGWVSDERTVYPSRVINQEIDNCCLQKNAKISSEERKMVFSLVSKEFELTLDVKAAQSSINHIIIGNASFGKKMDALCDGMSRAVKNSTTDYIANVLADKFYQKHIAPGVDIVKLRNEIPGYMSRVIQG | not soluble |
| MTTYTTNDFSEIVFGRKSVRVYDETHKISHEEMLTMIQEATTAPSSVNMQPWRFVVVESEAGKEKLKPLIRFNTRQNETSSAMLLIFGDLNCHERGEEIYNQAYASGKMPKEVRDQQLAAIIPHYESLSREQMNDIVKIDASLAAMQFMLVARAHGYETNPIGGFEAEKLAETFGLDQERYVPVMILSVGKGMETGYESVRLAPEKITTFE | not soluble |
| MAAFNAKYLIDLLKRIRSGEESIDSPDALELLYIPLPLAHELGVINSMDGLDPYDEMEISCKSILKKLDEKKKTEEKHRAKQERQAQKKGAKEQAKKEKAELKKEAKELLKKEKAEERKKESLKRKLSEKSEPAAKKAKASEDQENRGATKKKITPPNRKHTALFKKCMAMRVKNFAY | not soluble |
| MVRVVIESELVRTEKELPNSLKLRQFKDRLYHVTGVEPEDMEIVVKRQYDNKEIYSTKKGGAYSNEDEDANFLKGEEELIVVVTDSNAQSISNQLATQAEGIPSMEVISEEDYLRRDQSVLRWKMAHGYGRFNAAQQSQRAALAKQDEAYAREQLTAAIGRHCRVTVDGSAPREAILRYVGPLPLDVMGTWCGVEFPEAAGKNDGRINGVTLFGPVAPGHGSFVRPRAVEILSKDEESAEVEDVHDDVESDDEI | soluble |
| MSQSTSSEGSGPAAKIARKNSPENDPETAEMFIVDEITDMRYSTTCRQLQFLVKWAIPGSEMTWQPLDDFPFGLNHFSILDYRKDHEEKYEACLQKQRRSKVMKDDDRSWNVSRNSNRSRNRSKSSSKPAQRTEPMTQREKFDAILQISEISLEKQYKLTNKKVPRRSQFTDPDAPKKKSKGARHYRDQNLKTLFKSSLIRKYRKPQESDDDLEPDVAQDSPENTPAPPTKSPESSGFSENLENLGANTPSPSPDFEEEHLEKKPETGNLTENRPKRVYSHETAESMENYAKLLLYTAFDTKSWETLGGHIKNGFRLSFVCSNGLTIIENVVELNKNLNKFSDSRESRMVADLFELLLKKGVEFDEKTLPPTMCAAVRSTRYDIRRDFRCLHNQYIDKRPRMCEWFSATGGGGSCGTTEICTFWNNDAGYLPNTHQRSKFHVDLSEFTGNNLGLLAFSMAWHEDFIDNNSGGPEIVKNNRFNAHIDVPCFTLWMNGKMCEKLENSHGLSIFRPLGTVLDVNELKIKITEHSSRFVAILPVFNLNSDWKNCFFPLENQ | not soluble |
